Data set [1] has as its target protein kinase p38βII (Homo sapiens, UniProt Q15759). Description: Fluorogenic kinase assay with p38βII, rates at varying ATP fitted to Michaelis-Menton equation. In kind it is biochemical. Conditions: p38bII 14 nM; 20 mM Tris pH 7.4, MgCl2 5 mM, DTT 5 mM; read 1 hour; read-out: apparent Km of ATP. The text has this:
A comparison of the rates of reaction for a kinase substrate comprising two hydrophobic moieties (i.e. C12OOK(dye 2)RRIPLSPOOK(C12)NH2, (peptide disclosed as SEQ ID NO: 20) used at a concentration of 2 μm and referred to herein as compound 2) versus a kinase substrate comprising a single hydrophobic moiety (i.e.C16OOK(dye 2)[…]2, (peptide disclosed as SEQ ID NO: 20) used at a concentration of 4 μm; and referred to herein as compound 4) for several concentrations of ATP (0, 5, 10, 20, 50, 100, 200, and 500 μM) is shown in FIGS. 4A and 4B. […] The rates of the reaction were fitted to the Michaelis-Menton equation. […]
(§1) Kinase assays were performed using Corning 384-well, black, non-binding surface (NBS), microwell plates. Fluorescence was read in real time using a […] Gemini XS plate reader, with excitation and emission set at 500 and 550 respectively. The plate was read every minute for one hour at ambient temperature
Concentrations of dye-labeled peptides were determined by dilution of the purified peptides into dimethylformamide (200 μL) with 1 M NaOH (5 μL) and measuring the absorbance of either 5-carboxy-2′,7′-dipyridyl-sulfonefluorescein (i.e. dye2) at its absorbance maximum (548 nm) or 2′,7′,4,7-tetachloro-5-carboxy fluorescein (i.e. 2′,7′-dichloro-5-carboxy-4,7-dichlorofluorescein or “tet”) at its absorbance maximum (541 nm). […]

The conditions of data set [2]: side chain (imidazole of histidine; cysteine); cited from earlier work.
Data set [3] concerns the target protein kinase Akt3/PKBγ (Homo sapiens, UniProt Q9Y243). Description: Fluorogenic kinase assay with Akt3/PKBγ, rate of reaction, two vs one hydrophobic moiety. Conditions: compared with one-hydrophobic-moiety substrate C15OOOK(dye2)RPRTSSF-NH2; substrates 8 μM, Akt3/PKBγ 6 nM, ATP 100 μM (FIG. 5). In kind it is biochemical. The method, then: Tet is the fluorescein dye 2′,7′,4,7-tetachloro-5-carboxy fluorescein.
as §1
Concentrations of dye-labeled peptides were determined by dilution of the purified peptides into dimethylformamide (200 μL) with 1 M NaOH (5 μL) and measuring the absorbance of either 5-carboxy-2′,7′-dipyridyl-sulfonefluorescein (i.e. dye2) at its absorbance maximum (548 nm) or 2′,7′,4,7-tetachloro-5-carboxy fluorescein (i.e. 2′,7′-dichloro-5-carboxy-4,7-dichlorofluorescein or “tet”) at its absorbance maximum (541 nm). The extinction coefficient of both dyes was assumed to be 80,000 cm^−1M^−1.

Where no end group is shown, it is not given here. [ ]: non-standard residue; d: D form. K(dye 2) = not defined here; K(tet) = not defined here; Orn = NCCC[C@H](N)C(=O)O; C12 = C12 group (lipid); C11 = C11 lipid

Chain of protein kinase p38βII (Q15759 whole entry): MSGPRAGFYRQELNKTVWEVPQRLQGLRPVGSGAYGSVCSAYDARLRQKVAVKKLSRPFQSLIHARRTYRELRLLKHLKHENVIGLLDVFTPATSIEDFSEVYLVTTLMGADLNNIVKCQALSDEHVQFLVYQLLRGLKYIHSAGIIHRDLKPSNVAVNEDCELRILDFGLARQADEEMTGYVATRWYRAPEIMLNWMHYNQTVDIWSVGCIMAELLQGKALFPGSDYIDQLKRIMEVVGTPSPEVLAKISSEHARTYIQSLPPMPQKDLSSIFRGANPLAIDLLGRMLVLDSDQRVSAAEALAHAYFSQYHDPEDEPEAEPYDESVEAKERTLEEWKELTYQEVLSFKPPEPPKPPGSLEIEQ
Chain of protein kinase Akt3/PKBγ (Q9Y243 whole entry): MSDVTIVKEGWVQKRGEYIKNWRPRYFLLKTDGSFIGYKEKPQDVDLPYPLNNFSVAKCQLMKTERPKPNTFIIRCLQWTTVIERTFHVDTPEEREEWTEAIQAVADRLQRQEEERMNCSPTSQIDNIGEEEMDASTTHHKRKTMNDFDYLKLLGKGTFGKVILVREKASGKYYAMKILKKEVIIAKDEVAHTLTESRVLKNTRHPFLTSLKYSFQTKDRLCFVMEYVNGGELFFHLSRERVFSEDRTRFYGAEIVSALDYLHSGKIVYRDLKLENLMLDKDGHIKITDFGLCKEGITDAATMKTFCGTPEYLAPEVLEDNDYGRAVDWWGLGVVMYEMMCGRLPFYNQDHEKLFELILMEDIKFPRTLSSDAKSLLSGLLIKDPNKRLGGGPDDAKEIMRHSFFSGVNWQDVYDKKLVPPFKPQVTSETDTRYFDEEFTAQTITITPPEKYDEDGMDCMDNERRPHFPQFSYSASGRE

As a reminder, the Km is the concentration of substrate that gives half-maximal velocity. Turning to “C12OOK(dye 2)ArgArgIleProLeuSerProOOK(C12)NH2 ({C12-Orn-Orn-K(dye 2)}-RRIPLSP[Orn][Orn]-{K(C12)-NH2}; not fully specified; printed as C12OOK(dye 2)ArgArgIleProLeuSerProOOK(C12)NH2; reading uncertain) [compound 2, kinase substrate for p38βII with two C12 hydrophobic moieties and Dye 2]”, the Km in data set [1] stood at 90 µM. As to `N[C@@H](Cc1c[nH]cn1)C(=O)O` [Histidine (H), Histidine], in data set [2], the pK entry is “about 7”.

Turning to “C16OOK(dye 2)RRIPLSPNH2 (RRIPLSP-NH2; not fully specified (N-terminus); printed as C16OOK(dye 2)RRIPLSPNH2) [compound 4, comparison kinase substrate with a single hydrophobic moiety]”, the Km in data set [1] is above 200 µM. On to “C11OOK(tet)ArgProArgThrSerSerPheOOK(C11)NH2 ({C11-Orn-Orn-K(tet)}-RPRTSSF[Orn][Orn]-{K(C11)-NH2}; not fully specified; printed as C11OOK(tet)ArgProArgThrSerSerPheOOK(C11)NH2; reading uncertain) [compound 3, kinase substrate for Akt3/PKBγ with two C11 hydrophobic moieties and tet dye]”, for which the “signal to noise ratio” value in data set [3] was “improved signal to noise ratio”.

The values are drawn from patent US7304146B2, “Fluorogenic kinase assays and substrates” (Applera Corporation, priority 2004, dated 2007).
